Test results published in paper PMC11554683, “GNG5 is a novel regulator of Aβ42 production in Alzheimer’s disease” (Cell Death & Disease, 2024).

Target: the molecule itself
Test: western blot (band sizes); recombinant GNG5 (purity >95%) used to assess anti-GNG5 antibodies (Fig. S3B)

B1: recombinant GNG5 (G protein subunit gamma 5) (natural protein, UniProt P63218 1-68, looked up)
chain: MSGSSSVAAMKKVVQQLRLEAGLNRVKVSQAAADLKQFCLQNAQHDPLLTGVSSSTNPFRPQKVCSFL
notes: G protein subunit gamma 5 (GNG5); Purity >95% is stated; also called purified GNG5; homotrimer-GNG5; source: E. coli BL21 (DE3), purified (HisTrap HP, PD-10)
stoichiometry N: 3
